Measured values reported in the supplement of paper PMC10567573.

Assay: protein stability index of a GFP-peptide fusion (GPS, HEK-293T) (PSI 1-6); higher = more stable
Conditions: parent: NP_006221.1; c terminus: native
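Further: lentivirally expressed fusion library, cells FACS-sorted into six equal-sized GFP/DsRed ratio bins, PSI computed from sequencing read fractions per bin weighted by bin number.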

**Q.** With CQPISFSGFGAEDDDLGGLGLGPRQ [POLD2 addRQ] as the protein, how does the protein stability index read?
**A.** Its protein stability index is 4.81.
